{"source": "paper PMC2364237", "biological_target": "GST-Grb2(SH2) SH2 domain (UniProt P62993)", "experiment": "GST-Grb2(SH2) pull-down, anti-HA blot", "conditions": "reference: HA-ShcWT; sites Y317"}
{"substance": "HA-tagged Shc (52 kDa isoform) (from UniProt P29353-2) HA-ShcY317F", "values": [{"measurement": "binding against the reference", "value": "weaker"}]}
